US20130171155A1

How the values were obtained:
Experiment in all cases: cell-based or functional assay
[1] = biological target: baboon factor D (in baboon serum or plasma) (baboon)
[2] = biological target: dog factor D (in dog serum) (dog); conditions: scale: times less effective than on human factor D
[3] = biological target: human factor D purified from human serum (human) (UniProt P00746)
Sequence of UniProt P00746 (P00746 26-253 N180D): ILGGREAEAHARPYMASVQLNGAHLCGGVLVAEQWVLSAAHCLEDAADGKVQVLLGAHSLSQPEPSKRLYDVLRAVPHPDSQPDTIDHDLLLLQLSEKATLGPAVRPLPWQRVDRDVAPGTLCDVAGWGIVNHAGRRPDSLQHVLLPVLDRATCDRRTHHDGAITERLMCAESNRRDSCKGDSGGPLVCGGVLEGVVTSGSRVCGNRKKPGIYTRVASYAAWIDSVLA

Q: Which results are given for MAb 166-32 (antibody)?
A: inhibition of alternative complement hemolytic activity of baboon plasma, 18 hours after CPB [1]: 79.3%; neutralization of dog factor D in hemolytic assays [2]: > 10; alternative complement activity (hemolytic assay, unsensitized rabbit RBCs) in paired extracorporeal circuits [3]: 18 µg/mL; alternative pathway hemolytic activity of plasma from extracorporeal circuits (human whole blood) (molar ratio (MAb:factor D)) [3]: 1.5; factor D dependent hemolysis of unsensitized rabbit RBCs (factor D depleted human serum with added factor D) [3]: 0.3 µg/mL
